Results from US20210380994A1, “LACTOCOCCUS LACTIS EXPRESSION SYSTEM FOR DELIVERING PROTEINS EFFICACIOUS FOR THE TREATMENT OF EPITHELIAL BARRIER FUNCTION DISORDERS” (Second Genome, Inc., priority 2018, published 2021).

B1: SG-11: Roseburia hominis protein comprising SEQ ID NO:3; tested as SEQ ID NO:5, SEQ ID NO:7 or FLAG-tagged SEQ ID NO:9 (protein, listed as Rosburia hominis)
chain: LEGEESVVYVGKKGVIASLDVETLDQSYYDETELKSYVDAEVEDYTAEHGKNAVKVESLKVEDGVAKLKMKYKTPEDYTAFNGIELYQGKVVASLAAGYVYDGEFARVEEGKVVGAATKQDIYSEDDLKVAIIRANTDVKVDGEICYVSCQNVKLTGKDSVSIRDGYYLETGSVTASVDVTGQESVGTEQLSGTEQMEMTGEPVNADDTEQTEAAAGDGSFETDVYTFIVYK
B2: SG-11V5: variant of SEQ ID NO:7 with N53S, N83S, C147V, C151S (protein)
chain: MLEGEESVVYVGKKGVIASLDVETLDQSYYDETELKSYVDAEVEDYTAEHGKSAVKVESLKVEDGVAKLKMKYKTPEDYTAFSGIELYQGKVVASLAAGYVYDGEFARVEEGKVVGAATKQDIYSEDDLKVAIIRANTDVKVDGEIVYVSSQNVKLTGKDSVSIRDGYYLETGSVTASVDVTGQESVGTEQLSGTEQMEMTGEPVNADDTEQTEAAAGDGSFETDVYTFIVYK
modifications: Artificial variant of SG-11 (N53S, N83S, C147V, C151S)

System: Syrian Golden Hamsters, mucositis of the left buccal cheek pouch
Experiment: radiation-induced oral mucositis model
Assay type: in vivo, hamster
Conditions: for % Days ≥3 (percent of animal days with a mucositis score ≥3): Vehicle 59.52%; for Days <3 (animal days with a mucositis score <3) / Days ≥3 (animal days with a mucositis score ≥3): through Day 28; for days of improvement in mucositis scores compared to the Vehicle control group: topical b.i.d.
Procedure: Forty-eight (48) male Syrian Golden Hamsters were used in the study.
Mucositis was induced by administering a single dose of radiation (40 Gy) directed to the left buccal cheek pouch at a rate of 2-2.5 Gy/min administered on Day 0. Radiation was generated with a 160 kilovolt potential (18.75-ma) source at a fecal distance of 10 cm, hardened with a 3.0 mm Al filtration system. Prior to irradiation, animals were anesthetized with an intraperitoneal injection of ketamine (160 mg/kg) and xylazine (8 mg/kg). The left buccal pouch was everted, fixed and isolated using a lead shield. Mucositis was evaluated clinically starting on Day 6 and continuing on alternate days until Day 28. The acute model has little systemic toxicity, resulting in few hamster deaths, thus permitting the use of smaller groups (n=7-8) for initial efficacy studies. It has abo been used to study specific mechanistic elements in the pathogenesis of mucositis.
The animals were divided into 6 treatment groups in which they were administered: Test agents (SG-11 or SG-11V5), a positive control (proprietary to Biomodels, LLC, Watertown, Mass.) or vehicle only were given by topical application to the left cheek pouch as detailed in Table 15 below.
On Day 0, morning dosing was performed at least 1 hour prior to irradiation and at least 1 hour post-irradiation (for PM dose). On Day 28, animals were euthanized and the left cheek pouch rom animals in Groups 1, and Groups 3-6 were excised, placed in a cryovial, snap frozen, and stored at −80° C. until shipment.
Starting on Day 6 and continuing every second day thereafter (Days 8, 10, 12, 14, 16, 18, 20, 22, 24, 26, 28) each animal was photographed and evaluated for mucositis scoring. For the evaluation of mucositis, the animals were anesthetized with an inhalation anesthetic and the left pouch everted. Mucositis was scored visually by comparison to a validated photographic scale (FIG. 37A), ranging from 0 for normal, to 5 for severe ulceration (clinical scoring). In descriptive terms, this scale is defined in Table 16.
A score of 1-2 is considered to represent a mild stage of the disease, whereas a score of […] is considered to indicate moderate to severe ulcerative mucositis. At the conclusion of the experiment, the photographs were randomly numbered and scored by two independent, trained observers who graded the images in blinded fashion using the above-described scale (blinded scoring). Hamsters reaching a mucositis severity score of 4 or higher received buprenorphine (0.5 mg/kg) SC twice a day for 48 hours or until score dropped below 4.
Statistical significance of observed differences was calculated using chi-squared analysis. The significance of differences observed between the control and treatment groups was evaluated by comparing the days with mucositis scores ≥3 and <3 between groups using chi-square analysis. The results of this analysis are shown in Table 17 far the entire study duration (through Day 28). Over the course of the study (Table 17), the percentage of animal days with a score of ≥3 in the Vehicle Group was 59.52%.

[1] = 0.75 mg/ml, 0.2 ml topical b.i.d., SG-11 Day 16, SG-11V5 Days 16 and 18, Vehicle 3.29

Row | Molecule | % Days ≥3 (percent of animal days with a mucositis score ≥3) (0.75 mg/mL) [%] | Days <3 (animal days with a mucositis score <3) (0.75 mg/mL) | Days ≥3 (animal days with a mucositis score ≥3) (0.75 mg/mL) | peak mean mucositis score (scale 0-5) [1] | days of improvement in mucositis scores compared to the Vehicle control group | Days <3 (animal days with a mucositis score <3) (0.075 mg/mL) | Days ≥3 (animal days with a mucositis score ≥3) (0.075 mg/mL) | peak mean mucositis score (scale 0-5) (0.075 mg/ml topical b.i.d., Days 16 and 18) | % Days ≥3 (percent of animal days with a mucositis score ≥3) (0.24 mg/mL) [%] | Days <3 (animal days with a mucositis score <3) (0.24 mg/mL) | Days ≥3 (animal days with a mucositis score ≥3) (0.24 mg/mL) | peak mean mucositis score (scale 0-5) (0.24 mg/ml topical b.i.d., Days 16 and 18)
1 | B1 | 50.00 | 96 | 96 | 3.25 | one day of improvement |  |  |  |  |  |  | 
2 | B2 |  | 120 | 72 | 2.63 | multiple days | 106 | 86 | 3.00 | 53.65 | 89 | 103 | 3.13
